Experiment [1] addresses HLA-B*46:01. Put plainly: IEDB peptide-MHC binding, purified MHC/direct/fluorescence; filed as Kd, often an IC50 or EC50 that approximates it; ≥ and ≤ were set here for values at or beyond the usual limits of such assays. The conditions noted are these: source organism: Cryptosporidium parvum Iowa II.
The target of experiment [2] is HLA-A*03:01. The experiment is described as above. The conditions noted are these: source organism: Cryptosporidium parvum Iowa II.
The target in experiment [3] is HLA-A*80:01. The description is as above. Particulars: source organism: Cryptosporidium parvum Iowa II.
For experiment [4], the target named is HLA-B*15:17. The experiment is described as above. The conditions noted are these: source organism: Cryptosporidium parvum Iowa II.
Experiment [5] has as its target HLA-A*26:01. The description is as above. The conditions noted are these: source organism: Cryptosporidium parvum Iowa II.
Experiment [6] concerns the target HLA-B*18:01. The experiment is described as above. The conditions noted are these: source organism: Cryptosporidium parvum Iowa II.
For experiment [7], the target named is HLA-A*25:01. The description is as above. The conditions noted are these: source organism: Cryptosporidium parvum Iowa II.
The next experiment addresses HLA-B*58:01. Put plainly: IEDB peptide-MHC binding, cellular MHC/competitive/fluorescence; ≥ and ≤ were set here for values at or beyond the usual limits of such assays. The conditions noted are these: source organism: Human herpesvirus 4 strain B95-8.
Experiment [8] deals with HLA-B*46:01. Put plainly: IEDB peptide-MHC binding, purified MHC/competitive/fluorescence; filed as Kd, often an IC50 or EC50 that approximates it; ≥ and ≤ were set here for values at or beyond the usual limits of such assays.
Experiment [9] has as its target HLA-A*03:01. Described as above. The conditions noted are these: source organism: Campylobacter jejuni subsp. jejuni NCTC 11168 = ATCC 700819.
A further experiment deals with HLA-A*02:16. The description is as above. Particulars: source organism: Campylobacter jejuni subsp. jejuni NCTC 11168 = ATCC 700819.
In another experiment the target is HLA-B*15:01. Described as above.
A further experiment has as its target HLA-B*27:03. Described as above.
In a further experiment the target is HLA-A*69:01. The description is as above. Particulars: source organism: Campylobacter jejuni subsp. jejuni NCTC 11168 = ATCC 700819.
The target in another experiment is HLA-A*02:11. The experiment is described as above. The conditions noted are these: source organism: Campylobacter jejuni subsp. jejuni NCTC 11168 = ATCC 700819.
The next experiment has as its target HLA-A*23:01. The experiment is described as above. The conditions noted are these: source organism: Campylobacter jejuni subsp. jejuni NCTC 11168 = ATCC 700819.
Experiment [10] deals with HLA-B*15:17. The experiment is described as above.
Experiment [11] deals with HLA-A*26:01. Described as above.
A further experiment deals with HLA-A*68:02. The experiment is described as above. Particulars: source organism: Campylobacter jejuni subsp. jejuni NCTC 11168 = ATCC 700819.
A further experiment deals with HLA-A*02:03. The description is as above. The conditions noted are these: source organism: Campylobacter jejuni subsp. jejuni NCTC 11168 = ATCC 700819.
The target in another experiment is HLA-B*39:01. The description is as above. The conditions noted are these: source organism: Campylobacter jejuni subsp. jejuni NCTC 11168 = ATCC 700819.
The target of experiment [12] is HLA-B*18:01. Described as above.
In a further experiment the target is HLA-A*29:02. Described as above. Particulars: source organism: Campylobacter jejuni subsp. jejuni NCTC 11168 = ATCC 700819.
A further experiment deals with HLA-A*02:12. Described as above. The conditions noted are these: source organism: Campylobacter jejuni subsp. jejuni NCTC 11168 = ATCC 700819.
Another experiment addresses HLA-B*51:01. The experiment is described as above.
A further experiment addresses HLA-A*24:03. The experiment is described as above. Particulars: source organism: Campylobacter jejuni subsp. jejuni NCTC 11168 = ATCC 700819.
A further experiment has as its target HLA-B*57:01. Described as above.
Another experiment has as its target HLA-A*02:19. The description is as above. The conditions noted are these: source organism: Campylobacter jejuni subsp. jejuni NCTC 11168 = ATCC 700819.
For experiment [13], the target named is HLA-A*02:01. The experiment is described as above. Particulars: source organism: Campylobacter jejuni subsp. jejuni NCTC 11168 = ATCC 700819.
Experiment [14] addresses HLA-A*02:01. Put plainly: IEDB peptide-MHC binding, purified MHC/direct/fluorescence; filed as Kd, often an IC50 or EC50 that approximates it; ≥ and ≤ were set here for values at or beyond the usual limits of such assays. The conditions noted are these: source organism: Homo sapiens.
The target in experiment [15] is HLA-A*80:01. Put plainly: IEDB peptide-MHC binding, purified MHC/competitive/fluorescence; filed as Kd, often an IC50 or EC50 that approximates it; ≥ and ≤ were set here for values at or beyond the usual limits of such assays. The conditions noted are these: source organism: Homo sapiens.
Experiment [16] deals with HLA-A*25:01. The description is as above. The conditions noted are these: source organism: Homo sapiens.
[17] abbreviates: source organism: Campylobacter jejuni subsp. jejuni NCTC 11168 = ATCC 700819.

As for RAIMTTWTV, the Kd – broadly, the concentration at which binding is half-saturated – with HLA-B*46:01 [1] was at least 20 µM; with HLA-A*03:01 [2], at least 20 µM; in the experiment with HLA-A*80:01 [3], at least 20 µM; with HLA-B*15:17 [4], 0.06 µM; with HLA-A*26:01 [5], at least 20 µM; with HLA-B*18:01 [6] it was at least 20 µM. For the same sequence, the Kd with HLA-A*25:01 [7] is at least 20 µM.
Consider NAAEPEQPW, for which the IC50 – broadly, the concentration that gives 50% inhibition – in the experiment with HLA-B*58:01 is 5 µM.
For the sequence LELAEITAE, the Kd with HLA-B*46:01 [8] (setting [17]), with HLA-A*03:01 [9], with HLA-A*02:16, with HLA-B*15:01 (setting [17]), with HLA-B*27:03 (setting [17]) and with HLA-A*69:01 was at least 20 µM each time. Further, the Kd with HLA-A*02:11, with HLA-A*23:01, in the experiment with HLA-B*15:17 [10] (setting [17]), in the experiment with HLA-A*26:01 [11] (setting [17]), with HLA-A*68:02 and with HLA-A*02:03 was at least 20 µM throughout. Moreover, the Kd is at least 20 µM with HLA-B*39:01; 0.511 µM with HLA-B*18:01 [12] (setting [17]); at least 20 µM with HLA-A*29:02; at least 20 µM with HLA-A*02:12; at least 20 µM with HLA-B*51:01 (setting [17]); at least 20 µM with HLA-A*24:03. For the same sequence, the Kd with HLA-B*57:01 (setting [17]), in the experiment with HLA-A*02:19 and in the experiment with HLA-A*02:01 [13] was at least 20 µM each time.
For HLLCQAFSV, the Kd in the experiment with HLA-A*02:01 [14] was 0.0002 µM; in the experiment with HLA-B*46:01 [8] (source organism: Homo sapiens), at least 20 µM; with HLA-B*15:01 (source organism: Homo sapiens), at least 20 µM; with HLA-B*27:03 (source organism: Homo sapiens) it was at least 20 µM; with HLA-A*80:01 [15], at least 20 µM; with HLA-B*15:17 [10] (source organism: Homo sapiens) it was at least 20 µM. For the same sequence, the equilibrium dissociation constant (Kd) with HLA-A*26:01 [11] (source organism: Homo sapiens), with HLA-B*18:01 [12] (source organism: Homo sapiens), in the experiment with HLA-B*51:01 (source organism: Homo sapiens), with HLA-A*25:01 [16] and with HLA-B*57:01 (source organism: Homo sapiens) was at least 20 µM throughout.

The values are drawn from the Immune Epitope Database (IEDB).
